The chains are these.
B1: scFv H3 (scFv)
scFv: QVQLQESGPGLVKTSETLSLTCAVSGYSISSGYYWGWIRQPPGKGLEWIGSISHTGNTYYNPPLKSRVTISVDTSKNQFSLKLSSVTAADTAVYYCARFMGFGRPEYWGKGTLVTVSSGGGGSGGGGSGGGGSALSSELTQDPPVSVALGQTVTLTCQGDSLRTYYASWYQQKSGQAPILLLYGKHKRPSGIPDRFSGSTSGDTASLTITGAQAEDEADYYCNSRDSSGNPHVLFGGGTQLTVL
B2: scFv H4 (scFv)
scFv: B1 scFv with F99W, M100L
B3: scFv L1 (scFv)
scFv: B1 scFv with F99G, M100G, F102I, G103S, N223A, D226S, S227V
B4: scFv L13 (scFv)
scFv: B1 scFv with F99G, M100G, F102I, G103S, N223V, S224T, D226N, S227R, S228Y
B5: scFv L10 (scFv)
scFv: B1 scFv with F99G, M100G, F102I, G103S, N223I, D226S, S227I, S228Y
B6: scFv L12 (scFv)
scFv: B1 scFv with F99G, M100G, F102I, G103S, N223V, S224A, D226G, S227T, S228R
B7: scFv L23 (scFv)
scFv: B1 scFv with F99G, M100G, F102I, G103S, N223S, S224A, D226S, S227V, S228R
B8: scFv L11 (scFv)
scFv: B1 scFv with F99G, M100G, F102I, G103S, N223S, D226S, S227R, S228H
B9: scFv L2 (scFv)
scFv: B1 scFv with F99G, M100G, F102I, G103S, N223V, S224A, D226S, S227V, S228V
B10: scFv L5 (scFv)
scFv: B1 scFv with F99G, M100G, F102I, G103S, N223A, D226S, S228K
B11: scFv L9 (scFv)
scFv: B1 scFv with F99G, M100G, F102I, G103S, N223V, S224A, D226S, S227N, S228K
B12: scFv H6 (scFv)
scFv: B1 scFv with M100F
B13: scFv L8 (scFv)
scFv: B1 scFv with F99G, M100G, F102I, G103S, N223T, S224T, D226S, S227T, S228Q
B14: scFv L15 (scFv)
scFv: B1 scFv with F99G, M100G, F102I, G103S, N223S, S224T, D226A, S227I, S228H
B15: scFv L3 (scFv)
scFv: B1 scFv with F99G, M100G, F102I, G103S, N223V, D226A, S227V, S228V
B16: scFv L17 (scFv)
scFv: B1 scFv with F99G, M100G, F102I, G103S, N223S, S224T, D226S, S227R, S228K
B17: scFv L14 (scFv)
scFv: B1 scFv with F99G, M100G, F102I, G103S, N223M, S224A, D226S, S227R, S228K
B18: scFv H5 (scFv)
scFv: B1 scFv with M100L
B19: scFv L18 (scFv)
scFv: B1 scFv with F99G, M100G, F102I, G103S, N223V, S224T, D226S, S227V, S228K
B20: scFv L4 (scFv)
scFv: B1 scFv with F99G, M100G, F102I, G103S, N223S, S224T, D226S, S228K
B21: scFv L6 (scFv)
scFv: B1 scFv with F99G, M100G, F102I, G103S, N223M, D226S, S227I, S228W
B22: scFv L16 (scFv)
scFv: B1 scFv with F99G, M100G, F102I, G103S, N223V, S224T, D226S, S227A, S228K
B23: scFv L20 (scFv)
scFv: B1 scFv with F99G, M100G, F102I, G103S, N223V, D226S, S227A, S228K
B24: scFv L19 (scFv)
scFv: B1 scFv with F99G, M100G, F102I, G103S, N223V, S224A, D226A, S227V, S228R

Changes are numbered by the printed parent chain.

murine IL-21R expressed on cells, sequence (Q9JHX3 20-529 limits assumed): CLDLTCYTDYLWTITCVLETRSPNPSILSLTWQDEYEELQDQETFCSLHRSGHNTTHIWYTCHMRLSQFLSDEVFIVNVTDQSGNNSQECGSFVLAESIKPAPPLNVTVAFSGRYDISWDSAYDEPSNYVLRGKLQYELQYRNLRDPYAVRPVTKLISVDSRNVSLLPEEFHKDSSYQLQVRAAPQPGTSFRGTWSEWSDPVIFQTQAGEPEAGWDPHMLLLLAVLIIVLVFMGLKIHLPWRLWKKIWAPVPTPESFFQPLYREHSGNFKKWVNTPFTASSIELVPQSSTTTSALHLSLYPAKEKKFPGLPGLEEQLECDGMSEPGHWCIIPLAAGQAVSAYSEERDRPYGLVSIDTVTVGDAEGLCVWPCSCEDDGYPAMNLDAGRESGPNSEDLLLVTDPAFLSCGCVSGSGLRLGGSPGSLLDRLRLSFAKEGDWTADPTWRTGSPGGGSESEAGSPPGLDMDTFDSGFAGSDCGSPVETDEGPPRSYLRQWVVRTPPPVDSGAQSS
human IL-21R expressed on cells, sequence (Q9HBE5 20-538 limits assumed): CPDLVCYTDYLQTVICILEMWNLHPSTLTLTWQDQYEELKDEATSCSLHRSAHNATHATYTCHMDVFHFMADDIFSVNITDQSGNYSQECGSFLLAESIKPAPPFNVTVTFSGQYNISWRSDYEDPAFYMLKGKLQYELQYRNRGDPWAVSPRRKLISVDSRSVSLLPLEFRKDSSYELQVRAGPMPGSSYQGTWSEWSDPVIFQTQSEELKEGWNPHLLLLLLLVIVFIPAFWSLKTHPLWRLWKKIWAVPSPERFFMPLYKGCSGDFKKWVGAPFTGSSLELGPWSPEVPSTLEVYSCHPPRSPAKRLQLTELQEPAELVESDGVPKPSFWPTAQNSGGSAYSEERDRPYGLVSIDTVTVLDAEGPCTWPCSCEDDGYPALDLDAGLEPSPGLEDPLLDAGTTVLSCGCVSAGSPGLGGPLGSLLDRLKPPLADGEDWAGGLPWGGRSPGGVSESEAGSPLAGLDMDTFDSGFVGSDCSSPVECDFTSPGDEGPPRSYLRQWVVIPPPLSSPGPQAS

One test addresses human IL-21R expressed on cells (human, UniProt Q9HBE5 20-538). In words: cell-based or functional assay.
As to B1, the “IC50 (nM) in Human IL-21R-BaF3 Neutralization Assay” value turned out to be 7.7 nM and the “IC50 (nM) in Human IL-21R-TF1 Neutralization Assay” value amounted to 98.1 nM.
The like results for B2 were, in that order, 3.8 nM and 9.3 nM.
The like results for B3 were, in that order, 3.7 nM and around 55 nM.
B4: the “IC50 (nM) in Human IL-21R-BaF3 Neutralization Assay” value came out at 11 nM and the “IC50 (nM) in Human IL-21R-TF1 Neutralization Assay” value is 257 nM.
Turning to B5, the “IC50 (nM) in Human IL-21R-BaF3 Neutralization Assay” value was 15.1 nM and the “IC50 (nM) in Human IL-21R-TF1 Neutralization Assay” value was 7 nM.
As to B6, the “IC50 (nM) in Human IL-21R-BaF3 Neutralization Assay” value was found to be 2.6 nM and the “IC50 (nM) in Human IL-21R-TF1 Neutralization Assay” value was 54.9 nM.
The corresponding values for B7 are 1.5 nM and 15.3 nM.
On to B8, for which the “IC50 (nM) in Human IL-21R-BaF3 Neutralization Assay” value was found to be 4.2 nM and the “IC50 (nM) in Human IL-21R-TF1 Neutralization Assay” value is 38.3 nM.
The corresponding values for B9 are 3.1 nM and 37.5 nM.
Regarding B10, the “IC50 (nM) in Human IL-21R-BaF3 Neutralization Assay” value was found to be 2.1 nM and the “IC50 (nM) in Human IL-21R-TF1 Neutralization Assay” value was around 20 nM.
The like results for B11 were, in that order, 2.8 nM and 27.7 nM.
The corresponding values for B12 are 13.8 nM and around 150 nM.
With B13, the “IC50 (nM) in Human IL-21R-BaF3 Neutralization Assay” value came to 4.1 nM and the “IC50 (nM) in Human IL-21R-TF1 Neutralization Assay” value was 51.3 nM.
For B14, the “IC50 (nM) in Human IL-21R-BaF3 Neutralization Assay” value amounted to 3.3 nM and the “IC50 (nM) in Human IL-21R-TF1 Neutralization Assay” value turned out to be 30.3 nM.
The corresponding values for B15 are 27.6 nM and around 7 nM.
The corresponding values for B16 are 1.6 nM and 60.3 nM.
The corresponding values for B17 are 3.2 nM and 33.5 nM.
B18: the “IC50 (nM) in Human IL-21R-BaF3 Neutralization Assay” value is 7.9 nM and the “IC50 (nM) in Human IL-21R-TF1 Neutralization Assay” value was 178 nM.
The like results for B19 were, in that order, 3.7 nM and 54.4 nM.
The corresponding values for B20 are 2.1 nM and around 60 nM.
The corresponding values for B21 are 5.9 nM and around 150 nM.
For the molecule B22, the “IC50 (nM) in Human IL-21R-BaF3 Neutralization Assay” value was found to be 3.7 nM and the “IC50 (nM) in Human IL-21R-TF1 Neutralization Assay” value came to 67.4 nM.
The like results for B23 were, in that order, 3.1 nM and 57.5 nM.
The like results for B24 were, in that order, 4.5 nM and 35.3 nM.

The next test concerns the target murine IL-21R expressed on cells (murine, UniProt Q9JHX3 20-529). Kind of test: cell-based or functional assay.
Consider B1, for which the “IC50 (nM) in Murine IL-21R-BaF3 Neutralization Assay” value was 25.7 nM.
The same measure, in the same setting: in the case of B3 it was 28.8 nM; in that of B4, 1.25 nM; in that of B6, 87.8 nM.
The same measure, in the same setting: next, B8: 10 nM; B9: 2.41 nM.
For the molecule B10, the “IC50 (nM) in Murine IL-21R-BaF3 Neutralization Assay” value turned out to be 38.5 nM.
Same read-out and setting: next, B11: 3.61 nM; B13: 715 nM.
Still for that read-out and setting: in the case of B14 it was 53.5 nM.
Consider B15, for which the “IC50 (nM) in Murine IL-21R-BaF3 Neutralization Assay” value was determined as 13.8 nM.
Same read-out and setting: next, B16: 2.66 nM; B17: 6.49 nM.
Turning to B18, the “IC50 (nM) in Murine IL-21R-BaF3 Neutralization Assay” value was found to be 53.7 nM.
As for B19, the “IC50 (nM) in Murine IL-21R-BaF3 Neutralization Assay” value came out at 8.34 nM.
The same measure, in the same setting: in the case of B21 it was 0.29 nM; in that of B22, 4.71 nM.
The same measure, in the same setting: next, B23: 15.4 nM; B24: 13.6 nM.

The values above are taken from patent US20090298167A1 (Pfizer, published 2009).
